Results taken from patent US8669352 (PANGENETICS B V, dated 2014).

Target: T1, human CD40 (human, UniProt P25942 21-277)
T1 construct: whole, on cells; also called huCD40; CD40 expressed on JY cells
Test: FACS on JY cells expressing CD40; 100 µl PER.C6 transient supernatant harvested after 48 h (antibody concentration not equalised), FITC anti-human IgG 1/100; in the same figure Mock Control Mean 11.25 / Median 8.74, FACS control (secondary only) Mean 10.18 / Median 8.74 [Condt.]
Experimental: (§1) FIG. 8. FACS analysis using JY cells. PER.C6 cell supernatant of the transient expressed variants (Q5E, K13A, E16Q, T17S, I29L, 37V, P45L, M48L, STS60NSA, T68S, S79F, and T108S) of 5D12 was harvested after 48 h. As control also supernatant was harvested of cells transfected with either ch5D12 or D15D12 together with supernatant from mock (no plasmid) transfected cells. Binding of expressed antibodies was tested by FACS using JY cells together with anti-human FITC labelled secondary antibody (1/100 diluted). As FACS control JY cells were incubated with only the secondary FITC labelled antibody.
(§2) By FACS analysis the antigen specificity of the expressed antibodies was analyzed. JY cells are EBV transformed human B-cells, which express CD40. Briefly, 100,000 JY cells were incubated with 100 µl supernatant from the transient expression experiment at 4° C. for 20 minutes. To remove unbound antibody cells were washed with PBS containing 0.05% NaAzide and 1% BSA. As secondary antibody 1/100 diluted FITC labeled anti-human IgG (Jackson 109-095-127) was used. After 20 minutes incubation at 4° C. cells were washed. Finally cell samples were measured on a FACScan (BD).

T1 sequence (P25942 21-277): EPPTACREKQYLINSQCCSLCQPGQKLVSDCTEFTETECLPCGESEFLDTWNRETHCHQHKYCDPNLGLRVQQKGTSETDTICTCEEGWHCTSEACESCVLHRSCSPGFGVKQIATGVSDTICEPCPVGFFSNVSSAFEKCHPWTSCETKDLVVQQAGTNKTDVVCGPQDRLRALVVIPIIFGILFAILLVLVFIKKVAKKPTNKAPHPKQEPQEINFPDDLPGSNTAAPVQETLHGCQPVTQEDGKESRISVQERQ

Binder | Mean (FL1-H) | Median (FL1-H)
T68S variant of deimmunised 5D12 (antibody, human IgG4, V domains shown, VH on a human IgG4 backbone) VH: QVKLQESGPGLVKPSETLSITCTVSGFSISRYSVYWIRQPPGKGPEWMGMMWGGGSTDYSTSLKSRLSISKDTSKSQVSLKMNSLRTDDTAMYYCVRTDGDYWGQGTTVTVSS VL: ELQLTQSPLSLPVTLGQPASISCRSSQSLANSNGNTYLHWYLQRPGQSPRLLIYKVSNRFSGVPDRFSGSGSGTDFTLKISRVEAEDVGVYYCSQSTHVPWTFGGGTKLEIKR | 35.2 FL1-H | 34 FL1-H
STS60NSA variant of deimmunised 5D12 (antibody, human IgG4, V domains shown, VH on a human IgG4 backbone) VH: QVKLQESGPGLVKPSETLSITCTVSGFSISRYSVYWIRQPPGKGPEWMGMMWGGGSTDYNSALKSRLTISKDTSKSQVSLKMNSLRTDDTAMYYCVRTDGDYWGQGTTVTVSS VL: ELQLTQSPLSLPVTLGQPASISCRSSQSLANSNGNTYLHWYLQRPGQSPRLLIYKVSNRFSGVPDRFSGSGSGTDFTLKISRVEAEDVGVYYCSQSTHVPWTFGGGTKLEIKR | 62.4 FL1-H | 58.8 FL1-H
T108S variant of deimmunised 5D12 (antibody, human IgG4, V domains shown, VH on a human IgG4 backbone) VH: QVKLQESGPGLVKPSETLSITCTVSGFSISRYSVYWIRQPPGKGPEWMGMMWGGGSTDYSTSLKSRLTISKDTSKSQVSLKMNSLRTDDTAMYYCVRTDGDYWGQGTSVTVSS VL: ELQLTQSPLSLPVTLGQPASISCRSSQSLANSNGNTYLHWYLQRPGQSPRLLIYKVSNRFSGVPDRFSGSGSGTDFTLKISRVEAEDVGVYYCSQSTHVPWTFGGGTKLEIKR | 99 FL1-H | 85.8 FL1-H
M48L variant of deimmunised 5D12 (antibody, human IgG4, V domains shown, VH on a human IgG4 backbone) VH: QVKLQESGPGLVKPSETLSITCTVSGFSISRYSVYWIRQPPGKGPEWLGMMWGGGSTDYSTSLKSRLTISKDTSKSQVSLKMNSLRTDDTAMYYCVRTDGDYWGQGTTVTVSS VL: ELQLTQSPLSLPVTLGQPASISCRSSQSLANSNGNTYLHWYLQRPGQSPRLLIYKVSNRFSGVPDRFSGSGSGTDFTLKISRVEAEDVGVYYCSQSTHVPWTFGGGTKLEIKR | 80.3 FL1-H | 72.3 FL1-H
P45L variant of deimmunised 5D12 (antibody, human IgG4, V domains shown, VH on a human IgG4 backbone) VH: QVKLQESGPGLVKPSETLSITCTVSGFSISRYSVYWIRQPPGKGLEWMGMMWGGGSTDYSTSLKSRLTISKDTSKSQVSLKMNSLRTDDTAMYYCVRTDGDYWGQGTTVTVSS VL: ELQLTQSPLSLPVTLGQPASISCRSSQSLANSNGNTYLHWYLQRPGQSPRLLIYKVSNRFSGVPDRFSGSGSGTDFTLKISRVEAEDVGVYYCSQSTHVPWTFGGGTKLEIKR | 82.5 FL1-H | 74.3 FL1-H
S79F variant of deimmunised 5D12 (antibody, human IgG4, V domains shown, VH on a human IgG4 backbone) VH: QVKLQESGPGLVKPSETLSITCTVSGFSISRYSVYWIRQPPGKGPEWMGMMWGGGSTDYSTSLKSRLTISKDTSKSQVFLKMNSLRTDDTAMYYCVRTDGDYWGQGTTVTVSS VL: ELQLTQSPLSLPVTLGQPASISCRSSQSLANSNGNTYLHWYLQRPGQSPRLLIYKVSNRFSGVPDRFSGSGSGTDFTLKISRVEAEDVGVYYCSQSTHVPWTFGGGTKLEIKR | 96.4 FL1-H | 82 FL1-H

Target: T1, human CD40
Test: FACS on JY cells expressing CD40; 100 µl PER.C6 transient supernatant harvested after 48 h (antibody concentration not equalised), FITC anti-human IgG 1/100; in the same figure Mock Control Mean 11.25 / Median 8.74, FACS control (secondary only) Mean 10.18 / Median 8.74
Experimental: as §1, §2

Binder | Mean (FL1-H) | Median (FL1-H)
E16Q variant of deimmunised 5D12 (antibody, human IgG4, V domains shown, VH on a human IgG4 backbone) VH: QVKLQESGPGLVKPSQTLSITCTVSGFSISRYSVYWIRQPPGKGPEWMGMMWGGGSTDYSTSLKSRLTISKDTSKSQVSLKMNSLRTDDTAMYYCVRTDGDYWGQGTTVTVSS VL: ELQLTQSPLSLPVTLGQPASISCRSSQSLANSNGNTYLHWYLQRPGQSPRLLIYKVSNRFSGVPDRFSGSGSGTDFTLKISRVEAEDVGVYYCSQSTHVPWTFGGGTKLEIKR | 39.5 FL1-H | 38.2 FL1-H
Q5E variant of deimmunised 5D12 (antibody, human IgG4, V domains shown, VH on a human IgG4 backbone) VH: QVKLEESGPGLVKPSETLSITCTVSGFSISRYSVYWIRQPPGKGPEWMGMMWGGGSTDYSTSLKSRLTISKDTSKSQVSLKMNSLRTDDTAMYYCVRTDGDYWGQGTTVTVSS VL: ELQLTQSPLSLPVTLGQPASISCRSSQSLANSNGNTYLHWYLQRPGQSPRLLIYKVSNRFSGVPDRFSGSGSGTDFTLKISRVEAEDVGVYYCSQSTHVPWTFGGGTKLEIKR | 39 FL1-H | 37.5 FL1-H
K13A variant of deimmunised 5D12 (antibody, human IgG4, V domains shown, VH on a human IgG4 backbone) VH: QVKLQESGPGLVAPSETLSITCTVSGFSISRYSVYWIRQPPGKGPEWMGMMWGGGSTDYSTSLKSRLTISKDTSKSQVSLKMNSLRTDDTAMYYCVRTDGDYWGQGTTVTVSS VL: ELQLTQSPLSLPVTLGQPASISCRSSQSLANSNGNTYLHWYLQRPGQSPRLLIYKVSNRFSGVPDRFSGSGSGTDFTLKISRVEAEDVGVYYCSQSTHVPWTFGGGTKLEIKR | 31.2 FL1-H | 30 FL1-H
T17S variant of deimmunised 5D12 (antibody, human IgG4, V domains shown, VH on a human IgG4 backbone) VH: QVKLQESGPGLVKPSESLSITCTVSGFSISRYSVYWIRQPPGKGPEWMGMMWGGGSTDYSTSLKSRLTISKDTSKSQVSLKMNSLRTDDTAMYYCVRTDGDYWGQGTTVTVSS VL: ELQLTQSPLSLPVTLGQPASISCRSSQSLANSNGNTYLHWYLQRPGQSPRLLIYKVSNRFSGVPDRFSGSGSGTDFTLKISRVEAEDVGVYYCSQSTHVPWTFGGGTKLEIKR | 33.4 FL1-H | 31.9 FL1-H
I37V variant of deimmunised 5D12 (antibody, human IgG4, V domains shown, VH on a human IgG4 backbone; also called 137V; 29I-37V) VH: QVKLQESGPGLVKPSETLSITCTVSGFSISRYSVYWVRQPPGKGPEWMGMMWGGGSTDYSTSLKSRLTISKDTSKSQVSLKMNSLRTDDTAMYYCVRTDGDYWGQGTTVTVSS VL: ELQLTQSPLSLPVTLGQPASISCRSSQSLANSNGNTYLHWYLQRPGQSPRLLIYKVSNRFSGVPDRFSGSGSGTDFTLKISRVEAEDVGVYYCSQSTHVPWTFGGGTKLEIKR | 96 FL1-H | 82 FL1-H
